Results as given in publication PMC3214623.

Legend:
[1] = target: porcine beta-2 microglobulin (pig) (UniProt Q07717); assay: radioligand binding
[2] = target: human beta-2 microglobulin (human) (UniProt P61769); assay: radioligand binding
Sequence of UniProt P61769 (P61769 21-119): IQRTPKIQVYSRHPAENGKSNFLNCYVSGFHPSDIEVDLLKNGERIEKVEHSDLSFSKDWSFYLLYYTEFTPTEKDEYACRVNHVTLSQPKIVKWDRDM

Sequence of UniProt Q07717 (Q07717 21-118): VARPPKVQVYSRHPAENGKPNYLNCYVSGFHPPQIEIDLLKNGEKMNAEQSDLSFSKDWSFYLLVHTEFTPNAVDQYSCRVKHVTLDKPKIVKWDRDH

Row | Substance | affinity (half-saturation of the heavy chain titration) [1] [nM] | affinity (half-saturation of the heavy chain titration) [2] [nM]
1 | HLA-A*11:01 heavy chain, residues 1-275 (HHH) (domain or fragment) | 2.11 | 1.07
2 | chimeric MHC-I heavy chain HHP (HLA-A*11:01 α1α2, SLA-1*0401 α3) (domain or fragment) | 0.774 | 1.19
